Residues, ends and D or L forms follow the SMILES beside them. *: point of attachment. Cbz = O=C(OCc1ccccc1)*

The values below come from patent US20090131309A1, “ICA512 COUPLES INSULIN SECRETION AND GENE EXPRESSION IN BETA-CELLS” (Technische Universität Dresden Medizinizche Fakultät Carl …, priority 2004, published 2009).

Series [1] addresses ICA512-TMF (endogenous in INS-1 cells) (rat) (UniProt Q63259). In words: cell-based or functional assay.
In series [2] the target is T1, μ-calpain (Homo sapiens, UniProt P07384).
T1 sequence (P07384 1-714): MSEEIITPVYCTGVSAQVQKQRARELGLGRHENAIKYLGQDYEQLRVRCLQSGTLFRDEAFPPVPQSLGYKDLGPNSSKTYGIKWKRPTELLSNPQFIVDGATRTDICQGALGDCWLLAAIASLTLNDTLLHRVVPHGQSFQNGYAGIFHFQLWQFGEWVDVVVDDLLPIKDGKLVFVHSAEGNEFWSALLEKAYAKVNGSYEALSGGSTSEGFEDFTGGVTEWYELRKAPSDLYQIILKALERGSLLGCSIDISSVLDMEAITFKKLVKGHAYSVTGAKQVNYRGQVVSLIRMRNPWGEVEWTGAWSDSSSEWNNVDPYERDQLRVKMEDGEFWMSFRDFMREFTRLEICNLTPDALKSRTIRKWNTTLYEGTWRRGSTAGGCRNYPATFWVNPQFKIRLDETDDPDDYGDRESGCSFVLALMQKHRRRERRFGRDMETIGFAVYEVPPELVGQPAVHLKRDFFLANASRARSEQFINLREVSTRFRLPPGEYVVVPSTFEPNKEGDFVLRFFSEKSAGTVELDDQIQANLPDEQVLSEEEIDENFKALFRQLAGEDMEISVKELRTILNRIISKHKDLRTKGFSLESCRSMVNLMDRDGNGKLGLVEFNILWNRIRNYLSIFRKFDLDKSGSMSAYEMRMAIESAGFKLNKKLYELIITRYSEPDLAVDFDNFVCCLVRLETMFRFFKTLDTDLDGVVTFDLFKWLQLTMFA
T1 sequence (P04632 1-268 partner): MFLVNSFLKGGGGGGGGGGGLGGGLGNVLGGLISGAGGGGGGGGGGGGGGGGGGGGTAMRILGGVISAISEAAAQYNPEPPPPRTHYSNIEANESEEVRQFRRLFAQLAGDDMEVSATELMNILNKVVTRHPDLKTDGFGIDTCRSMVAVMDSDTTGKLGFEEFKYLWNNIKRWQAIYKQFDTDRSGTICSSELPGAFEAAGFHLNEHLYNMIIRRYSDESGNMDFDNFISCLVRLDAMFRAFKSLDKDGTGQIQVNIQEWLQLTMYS
The series is classed as biochemical. To be noted: bacterially expressed ICA512 (601-979), 50 μM Ca2+, 30 μM inhibitor. As to the method: In-vitro μ-calpain cleavage. 3 μg bacterially expressed His-ICA512 cytoplasmic domain (residues 601-979) (Ort et al., 2001) were incubated in 20 μl buffer (20 mM Tris-HCl pH 7.5, 50 μM CaCl2, 1 mM L-cysteine) at room temperature with or without 150 ng μ-calpain (Calbiochem) and 30 μM calpeptin or MG-132 for 1, 5, 15 or 45 minutes. The reactions were stopped by addition of an equal volume of 2×SDS sample buffer. Following SDS-PAGE, proteins were stained with Coomassie Blue (Bio-Rad).

The test system of series [3] is T2, 6X histidine-tagged human ICA512 cytoplasmic domain (residues 601-979).
T2 sequence: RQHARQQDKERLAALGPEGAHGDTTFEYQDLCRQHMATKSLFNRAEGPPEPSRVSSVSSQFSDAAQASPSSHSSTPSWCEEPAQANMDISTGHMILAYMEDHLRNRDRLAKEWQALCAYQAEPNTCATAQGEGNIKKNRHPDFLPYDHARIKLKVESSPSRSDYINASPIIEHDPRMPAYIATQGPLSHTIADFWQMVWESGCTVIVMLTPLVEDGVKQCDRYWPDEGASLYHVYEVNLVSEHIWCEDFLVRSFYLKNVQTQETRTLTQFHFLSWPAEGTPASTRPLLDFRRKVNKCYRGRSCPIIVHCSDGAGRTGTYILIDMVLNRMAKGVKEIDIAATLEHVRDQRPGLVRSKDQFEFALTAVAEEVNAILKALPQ

For series [4], the target named is T3, PIASy (Mus musculus, UniProt Q9JM05).
T3 construct: made in house; host or cells: in-vitro transcription-translation (T7 coupled system, Promega)
T3 sequence (Q9JM05 2-507): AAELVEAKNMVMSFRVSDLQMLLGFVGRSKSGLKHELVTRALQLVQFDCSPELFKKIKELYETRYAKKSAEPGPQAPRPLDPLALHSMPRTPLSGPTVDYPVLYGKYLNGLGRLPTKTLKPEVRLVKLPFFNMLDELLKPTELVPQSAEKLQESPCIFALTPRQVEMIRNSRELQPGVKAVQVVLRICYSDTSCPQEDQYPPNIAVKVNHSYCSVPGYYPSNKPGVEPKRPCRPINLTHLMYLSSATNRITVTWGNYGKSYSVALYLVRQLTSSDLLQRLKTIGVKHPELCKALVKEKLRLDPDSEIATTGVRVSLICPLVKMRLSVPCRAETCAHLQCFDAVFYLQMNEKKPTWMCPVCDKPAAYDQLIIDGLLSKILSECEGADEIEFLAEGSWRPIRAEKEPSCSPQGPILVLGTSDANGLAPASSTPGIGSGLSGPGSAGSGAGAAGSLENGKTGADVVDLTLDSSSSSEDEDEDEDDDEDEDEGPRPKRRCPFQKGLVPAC
The series can be described thus: GST pull-down assay with PIASy. The series is classed as binding. To be noted: in-vitro transcribed and translated 35S-labeled partner, glutathione-sepharose beads. As to the method: GST-Pull Down Assays. ICA512 (601-979) cDNA in pET28a (invitrogen) (29) was in vitro transcribed and translated using the T7/coupled transcription-translation system (Promega, Madison, Wis.) according to manufacture's instructions. PIAS1-GST and PIASy-GST (a kind gift of Rudolf Grosschedl) were expressed in bacteria as previously described (21, 30). Next, [^35S]-methionine-labeled ICA512 (601-979) was incubated overnight at 4° C. in GST binding buffer (120 mM NaCl, 50 mM Tris pH8, 0.25% Nonidet P-40, 1 mM DTT, 1 mM PMSF) with GST-fusion proteins or GST alone coupled to glutathione-sepharose beads (Amersham, Freiburg, Germany). Beads were washed five times with binding buffer, and then eluted with 10 mM reduced glutathione. The eluate was subjected to SDS-PAGE and analyzed by autoradiography.
Pull-down assays. GST-ICA512 (601-979), GST-ICA512 (700-979), and GST-ICA512 (800-979) were bacterially expressed as described^26. [^35S]-methionine-PIASy, -ICA512 (601-979), -p53 and -firefly luciferase were in-vitro transcribed and translated with the T7/coupled transcription-translation system (Promega) according to the manufacturer's instructions. [^35S]-PIASy was incubated with GST-ICA512 proteins or GST, while [^35S]-ICA512 (601-979), [^35S]-p53 and [^35S]-firefly luciferase were incubated with MBP-Ubc9. Proteins were collected with glutathione-(Amersham) or amylose-(New England Biolabs) sepharose beads as described^38. Proteins eluted from beads with glutathione or maltose were analyzed by SDS-PAGE and autoradiography with a phosphoimager BAS1800 II (Fuji).

Series [5] has as its system STAT5. In words: Firefly luciferase reporter assay for STAT activity (8GLE-CAS-FL) in INS-1 cells. The series is classed as cell-based, rat. To be noted: co-transfected INS-1 cells, hGH stimulation. As to the method:
Firefly luciferase assays. INS-1 cells were co-transfected with 8GLE-CAS-FL and one or two of the following plasmids: pEGFP, ICA512-CCF-GFP, ICA512-CCF(K/A^754)-GFP and PIASy-GFP. Two days after transfection, cells were incubated in low serum medium for 18 hrs, then stimulated with 20 nM hGH for 20 minutes, and finally left in resting buffer for 6 additional hours. Cells were harvested in 500 μl lysis reagent for luciferase assays (Promega) and 10 μl were used for measurement of luciferase activity in a Berthold luminometer. Each sample was performed in triplicate and the data represent the mean of at least 2 independent experiments.
In general terms: A reporter such as luciferase makes a cellular process visible.

“rat µ-calpain (endogenous in INS-1 cells) (from UniProt P97571 1-713)” showed a stimulus-dependent degradation of ICA512-TMF after siRNA knockdown of µ-calpain in INS-1 cells in series [1] of 1.6 fold. Take `CC(C)C[C@@H](C=O)NC(=O)[C@H](CC(C)C)NC(=O)[C@H](CC(C)C)NC(=O)OCc1ccccc1` [MG-132] (Cbz-Leu-Leu-Leu-aldehyde): the “Cleavage by μ-calpain” value in series [2] is “inhibited”.

As to µ-calpain (Calbiochem), the “in-vitro cleavage of bacterially expressed ICA512 (601-979) by µ-calpain, Coomassie Blue staining” value in series [3] was “Cleavage by µ-calpain was inhibited by calpeptin and MG-132, another inhibitor of cysteine proteases (FIG. 8)”.

B1: GST-ICA512 (700-979): GST fusion which only contains the PTP domain (protein)
chain: EDHLRNRDRLAKEWQALCAYQAEPNTCATAQGEGNIKKNRHPDFLPYDHARIKLKVESSPSRSDYINASPIIEHDPRMPAYIATQGPLSHTIADFWQMVWESGCTVIVMLTPLVEDGVKQCDRYWPDEGASLYHVYEVNLVSEHIWCEDFLVRSFYLKNVQTQETRTLTQFHFLSWPAEGTPASTRPLLDFRRKVNKCYRGRSCPIIVHCSDGAGRTGTYILIDMVLNRMAKGVKEIDIAATLEHVRDQRPGLVRSKDQFEFALTAVAEEVNAILKALPQ
modifications: left off: a dimerising Fc or GST
notes: GST fusion which only contains the PTP domain
Turning to B1, the “binding to PIASy in pull-down assay” value in series [4] is given as “bound”.

B2: GST-ICA512 (601-979): GST fusion encompassing the entire ICA512 cytoplasmic domain (protein)
chain: T2 sequence
modifications: left off: a dimerising Fc or GST
notes: GST fusion encompassing the entire ICA512 cytoplasmic domain
For B2, the “binding to PIASy in pull-down assay” value in series [4] is given as “bound”.

B3: ICA512-CCF(K/A^754)-GFP: ICA512-CCF-GFP construct in which Lys754 was replaced by alanine (protein)
chain: SQFSDAAQASPSSHSSTPSWCEEPAQANMDISTGHMILAYMEDHLRNRDRLAKEWQALCAYQAEPNTCATAQGEGNIKKNRHPDFLPYDHARIKLAVESSPSRSDYINASPIIEHDPRMPAYIATQGPLSHTIADFWQMVWESGCTVIVMLTPLVEDGVKQCDRYWPDEGASLYHVYEVNLVSEHIWCEDFLVRSFYLKNVQTQETRTLTQFHFLSWPAEGTPASTRPLLDFRRKVNKCYRGRSCPIIVHCSDGAGRTGTYILIDMVLNRMAKGVKEIDIAATLEHVRDQRPGLVRSKDQFEFALTAVAEEVNAILKALPQ
modifications: left off: large carriers
notes: ICA512-CCF-GFP construct in which Lys754 was replaced by alanine
In the case of B3, in series [5], the “STAT5 transcription activity (8GLE-CAS-FL luciferase)” value is “enhances its transcription activity less than ICA512-CCF-GFP”.

B4: GST-ICA512 (800-979): GST fusion which lacks the first 100 residues of the PTP domain (protein)
chain: ESGCTVIVMLTPLVEDGVKQCDRYWPDEGASLYHVYEVNLVSEHIWCEDFLVRSFYLKNVQTQETRTLTQFHFLSWPAEGTPASTRPLLDFRRKVNKCYRGRSCPIIVHCSDGAGRTGTYILIDMVLNRMAKGVKEIDIAATLEHVRDQRPGLVRSKDQFEFALTAVAEEVNAILKALPQ
modifications: left off: a dimerising Fc or GST
notes: GST fusion which lacks the first 100 residues of the PTP domain
Take B4: the “binding to PIASy in pull-down assay” value in series [4] is reported as “did not bind”.
